The Human Domainome abundance scans (Beltran et al. 2025)

B1: CD2-associated protein, residues 271 to 331; numbered along this chain, Q9Y5K6 (parent)
chain: KEYCRTLFAYEGTNEDELTFKEGEIIHLISKETGEAGWWRGELNGKEGVFPDNFAVQINEL

Variants of: B1
Assay: abundance fitness (aPCA) (normalised: wild type 0, dead -1); higher = more abundant; growth selection in yeast, the domain comes from the species named
Conditions: Homo sapiens

Abundance fitness of substitutions, site by site:
I25: V -0.083 | M -0.064 | K -0.35 | S -0.448 | G -0.602 | F -0.302 | W -0.75 | Q -0.234 | E -0.471 | D -0.285 | R -0.372 | H -0.448 | C -0.485 | N -0.451 | P -0.794 | T -0.175
T33: K -0.332 | R -0.473 | A -0.198 | E -0.471 | P -0.242 | Y -0.222 | W -0.331 | D -0.282 | I -0.099 | S -0.097 | G -0.076 | V -0.129 | C -0.163 | F -0.32 | M -0.468 | Q -0.451 | L -0.349 | H -0.209 | N -0.333
K21: W -0.538 | P -0.242 | C -0.16 | V -0.127 | G -0.027 | M -0.202 | N -0.019 | Q -0.139 | A -0.023 | T -0.076 | S -0.045 | H -0.107 | E -0.015 | I -0.265 | R -0.064 | L -0.203 | Y -0.37 | F -0.42
I26: W -0.599 | M -0.555 | E -0.725 | G -0.856 | T -0.605 | S -0.76 | C -0.46 | Q -0.734 | P -0.803 | R -0.829 | A -0.82 | L -0.214 | V -0.153 | H -0.537 | D -0.7
E32: N 0.085 | R -0.222 | K -0.044 | C -0.164 | G -0.261 | P -0.553 | Y -0.167 | D -0.003 | I -0.18 | W -0.116 | S -0.091 | V -0.152 | M -0.307 | H -0.202 | Q -0.139 | L -0.481 | T -0.111
H27: Y -0.126 | K 0.031 | F -0.26 | V -0.03 | I -0.297 | T 0.04 | E 0.093 | N -0.165 | Q -0.021 | A -0.005 | D -0.335 | G -0.09 | C 0.013 | S -0.083 | L -0.079 | P -0.428 | W -0.276
F20: C -0.793 | Q -0.629 | W -0.887 | H -0.603 | K -0.665 | L -0.709 | D -0.523 | E -0.91 | A -0.808 | S -0.564 | Y -0.713 | M -0.714 | T -0.854 | P -0.893 | I -0.492 | N -0.551
G34: C -0.064 | S -0.014 | E -0.155 | Y -0.628 | R -0.26 | L -0.477 | M -0.423 | F -0.491 | I -0.66 | W -0.712 | T -0.086 | A -0.216 | N -0.426 | P -0.181 | K 0.048 | D -0.031 | V -0.368
G37: D -0.617 | P -0.852 | Q -0.428 | F -0.492 | L -0.884 | I -0.613 | K -0.403 | S -0.718 | R -0.651 | M -0.819 | H -0.306 | N -0.747 | E -0.368
K31: D -0.717 | E -0.111 | T -0.024 | L -0.476 | Q -0.52 | W -0.862 | Y -0.634 | C -0.562 | S -0.571 | G -0.522 | M -0.013 | N -0.575 | V -0.313 | F -0.848 | A -0.635 | R 0.017 | I -0.672 | P -0.703
L18: T -0.541 | M -0.335 | I -0.513 | N -0.761 | F -0.685 | H -0.843 | A -0.485 | V -0.524 | D -0.739 | C -0.913 | S -0.766 | G -0.889 | K -0.744 | R -0.816 | Q -0.831 | W -0.792
I29: A -0.672 | M -0.185 | K -0.26 | W -1.05 | E -0.705 | G -0.713 | V -0.047 | F -0.628 | D -0.668 | Q -0.494 | P -0.524 | S -0.463 | C -0.561 | L -0.006 | T -0.215 | N -0.433 | Y -0.755 | H -0.56
T19: W -0.555 | R -0.283 | A -0.249 | Y -0.422 | V -0.66 | D -0.499 | F -0.592 | C -0.287 | G -0.431 | N -0.153 | L -0.814 | M -0.598 | E -0.696 | Q -0.536 | H -0.252 | I -0.693 | K -0.436
A36: F -0.158 | M -0.18 | G -0.235 | Y -0.334 | P 0.114 | V -0.03 | C -0.147 | Q 0.036 | E -0.13 | D -0.082 | L -0.305 | H -0.199 | T -0.044 | R -0.054 | W -0.22 | K -0.008 | I -0.193
E35: M -0.028 | S 0.034 | N 0.002 | A 0.055 | K 0.069 | L -0.035 | T 0.132 | C -0.027 | D 0.02 | Q 0.036 | R 0.034 | H -0.078 | W -0.358 | V 0.032 | Y 0.055 | P -0.252 | I 0.119 | G -0.125
L28: A -0.812 | I -0.068 | W -0.871 | D -0.82 | N -0.59 | G -0.778 | K -0.503 | V -0.005 | S -0.712 | E -0.738 | P -0.614 | C -0.676 | M -0.482 | R -0.706 | Y -0.702 | Q -0.913 | T -0.441 | H -0.623
E22: Y -0.915 | F -1.02 | R -0.209 | L -0.732 | P -0.061 | S -0.119 | V -0.171 | K 0.116 | A -0.072 | M -0.485 | N -0.437 | W -1.13 | T -0.25 | G -0.26 | I -0.404 | D -0.572 | Q -0.081 | C -0.4
S30: T 0.023 | P -0.71 | G -0.328 | D -0.2 | N -0.152 | W -0.957 | L -0.859 | R -0.419 | F -0.967 | V -0.709 | A -0.129 | C -0.365 | Q -0.36
G23: W -0.532 | M -0.958 | L -0.941 | S -0.465 | C -0.45 | Y -1.09 | F -0.863 | N -0.106 | E -0.564 | K -0.646 | I -0.613 | R -0.57 | Q -0.726 | T -0.424 | P -0.892 | H -0.644 | A -0.727 | V -1.13
E24: F -0.993 | L -0.599 | Y -0.77 | K -0.697 | Q -0.14 | W -0.827 | T -0.286 | N -0.824 | A -0.312 | D -0.036 | V -0.318 | P -0.694 | M -0.223 | R -0.782 | S -0.461
